From paper PMC2789841

Key:
Assay in all cases: SPR
[1] = biological target: Recombinant human CypD protein (cyclophilin D) (human) (UniProt P30405)
[2] = biological target: oligomeric Aβ40
[3] = biological target: oligomeric Aβ42

For Aβ40 (Aβ peptide residues 1-40), which Kd [1] is on record?
Its Kd is 1700 nM.

Which Kd [1] does the source give for Aβ42 (Aβ peptide residues 1-42) here?
The Kd was 164 nM.

With “Recombinant human CypD protein (cyclophilin D) (from UniProt P30405 30-207) (natural protein)” as the substance, how does the Kd [2] read?
Its Kd is 227 nM.

What about the Kd [3] of the same substance?
Its Kd is 4 nM.
